Test results from patent publication US20080213270.

Test system: Neurotensin (1-13)

Which “NT degradation by A23187-activated BMCMCs transduced with shRNA (percentage of NT remaining)” value does the source give for “neurolysin (NLN), mouse mast cell-associated” here?
The value was “mMC-CPA- or NL-shRNA-transduced BMCMCs also exhibited significantly reduced ability to degrade NT after activation with A23187 (5 uM)”.

What about the “NT degradation by membrane or cytosol preparations of mouse BMCMCs (percentage of NT remaining)” value of the same substance?
Its value is “either membrane or cytosol preparations of mouse BMCMCs degraded NT, an ability that was almost completely inhibited by the NLN inhibitor, Pro-Ile (10 mM)”.
